The assay deals with human insulin receptor (IR), overexpressed in rat fibroblasts (HIRc B cells) (human) (UniProt P06213). The assay is described as follows: cell-based or functional assay.

For the substance “recombinant human AHSG (α2-Heremans Schmid Glycoprotein) (from UniProt P02765 19-367)”, the insulin-induced IR autophosphorylation in intact HIRc B cells, rhAHSG at 1.8 µM was > 50%.

(Values after US20040198648A1.)
